Residue numbers refer to the chain shown, from its start. Blank lines part the entries; values can stand above or below the binder they belong to.
Molecular target: T1, Homo sapiens CGRP-alpha (Calcitonin Gene Related Peptide alpha) (Homo sapiens, C-terminal -NH2 as printed in the sequence (the text says "the N-terminal phenylalanine is amidated"))
T1 construct: Synthetic 37-residue peptide from American Peptides / Bachem; Coated directly on the plate in the recombinant-antibody ELISA; also called human CGRPα; CGRPα
T1 peptide: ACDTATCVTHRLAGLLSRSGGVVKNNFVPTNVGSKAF
Experiment: ELISA: CGRPα coated on plate, antibody dilution series, anti-human IgG Fc-peroxidase detection
Method: To characterize recombinant expressed antibodies for their ability to bind to human-CGRPα, antibody-containing solutions were tested by ELISA. All incubations were done at room temperature. Briefly, Immulon IV plagtes (Thermo Scientific) were coated with a CGRPα containing solution ([…] in PBS) for 2 hours. CGRPα-coated plates were then washed three times in wash buffer (PBS, 0.05% Tween-20). The plates were then blocked using a blocking solution (PBS, 0.5% fish skin gelatin, 0.05% Tween-20) for approximately one hour. The blocking solution was then removed and the plates were then incubated with a dilution series of the antibody being tested for approximately one hour. At the end of this incubation, the plate was washed three times with wash buffer and further incubated with a secondary antibody containing solution (Peroxidase conjugated affinipure F(ab′)2 fragment goat anti-human IgG, Fc fragment specific (Jackson Immunoresearch) for approximately 45 minutes and washed three times. At that point a substrate solution (TMB peroxidase substrate, BioFx) and incubated for 3 to 5 minutes in the dark. The reaction was stopped by addition of a HCl containing solution (0.5M) and the plate was read at 450 nm in a plate-reader.

- binding result: binds
B1: Antibody Ab1 (antibody, human IgG1, kappa, N297A, V domains shown)
VH: QSLEESGGRLVTPGTPLTLTCTVSGLDLSSYYMQWVRQAPGKGLEWIGVIGINDNTYYASWAKGRFTISRASSTTVDLKMTSLTTEDTATYFCARGDIWGPGTLVTVSS
VL: QVLTQTASPVSAAVGSTVTINCQASQSVYDNNYLAWYQQKPGQPPKQLIYSTSTLASGVSSRFKGSGSGTQFTLTISDLECADAATYYCLGSYDCSSGDCFVFGGGTEVVVKR
notes: Chimeric (rabbit variable regions, human gamma-1 and kappa constant regions), full length

- binding result: binds
B2: Antibody Ab4 (antibody, human IgG1, kappa, N297A, V domains shown)
VH: B1 VH with T22S, L26I, S30G, Q34N, D54G, N55A, R70K, A71T
VL: QVLTQTPSPVSAAVGSTVTINCQASQSVYHNTYLAWYQQKPGQPPKQLIYDASTLASGVPSRFSGSGSGTQFTLTISGVQCNDAAAYYCLGSYDCTNGDCFVFGGGTEVVVKR
notes: as for B1

- binding result: binds
B3: Antibody Ab11 (antibody, human IgG1, kappa, N297A, V domains shown)
VH: QSLEESGGRLVTPGGSLTLTCTVSGIDVTNYYMQWVRQAPGKGLEWIGVIGVNGKRYYASWAKGRFTISKTSSTTVDLKMTSLTTEDTATYFCARGDIWGPGTLVTVSS
VL: B1 VL with A12P, Q23R, D30Y, L79V, E80Q, A82D, S97N
notes: as for B1

- binding result: binds
B4: Antibody Ab7 (antibody, human IgG1, kappa, N297A, V domains shown)
VH: QEQLKESGGRLVTPGTSLTLTCTVSGIDLSNHYMQWVRQAPGKGLEWIGVVGINGRTYYASWAKGRFTISRTSSTTVDLKMTRLTTEDTATYFCARGDIWGPGTLVTVSS
VL: B1 VL with D30N, N31Y, L79V, E80Q, A82D, S97T
notes: as for B1

- binding result: binds
B5: Antibody Ab9 (antibody, human IgG1, kappa, N297A, V domains shown)
VH: QSLEESGGRLVTPGTPLTLTCTVSGIGLSSYYMQWVRQSPGRGLEWIGVIGSDGKTYYATWAKGRFTISKTSSTTVDLRMASLTTEDTATYFCTRGDIWGPGTLVTVSS
VL: B1 VL with A7P, S27N, D30N, K64R, L79V, E80Q, A82D, S97R
notes: as for B1

- binding result: binds
B6: Antibody Ab2 (antibody, human IgG1, kappa, N297A)
heavy: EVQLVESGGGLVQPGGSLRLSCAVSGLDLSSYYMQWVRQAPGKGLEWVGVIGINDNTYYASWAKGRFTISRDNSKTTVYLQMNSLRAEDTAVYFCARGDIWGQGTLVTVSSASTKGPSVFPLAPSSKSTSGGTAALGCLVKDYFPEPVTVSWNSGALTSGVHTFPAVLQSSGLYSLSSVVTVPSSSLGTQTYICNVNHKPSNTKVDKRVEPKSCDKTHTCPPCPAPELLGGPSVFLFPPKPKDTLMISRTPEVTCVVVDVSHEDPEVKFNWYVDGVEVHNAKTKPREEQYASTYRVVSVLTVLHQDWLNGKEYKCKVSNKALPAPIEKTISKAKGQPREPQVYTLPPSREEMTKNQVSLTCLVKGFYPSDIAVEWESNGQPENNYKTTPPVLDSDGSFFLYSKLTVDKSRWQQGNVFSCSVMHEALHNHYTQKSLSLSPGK
light: QVLTQSPSSLSASVGDRVTINCQASQSVYDNNYLAWYQQKPGKVPKQLIYSTSTLASGVPSRFSGSGSGTDFTLTISSLQPEDVATYYCLGSYDCSSGDCFVFGGGTKVEIKRTVAAPSVFIFPPSDEQLKSGTASVVCLLNNFYPREAKVQWKVDNALQSGNSQESVTEQDSKDSTYSLSSTLTLSKADYEKHKVYACEVTHQGLSSPVTKSFNRGEC
notes: Humanized, full length, human gamma-1 and kappa constant regions

- binding result: binds
B7: Antibody Ab5 (antibody, human IgG1, kappa, N297A)
heavy: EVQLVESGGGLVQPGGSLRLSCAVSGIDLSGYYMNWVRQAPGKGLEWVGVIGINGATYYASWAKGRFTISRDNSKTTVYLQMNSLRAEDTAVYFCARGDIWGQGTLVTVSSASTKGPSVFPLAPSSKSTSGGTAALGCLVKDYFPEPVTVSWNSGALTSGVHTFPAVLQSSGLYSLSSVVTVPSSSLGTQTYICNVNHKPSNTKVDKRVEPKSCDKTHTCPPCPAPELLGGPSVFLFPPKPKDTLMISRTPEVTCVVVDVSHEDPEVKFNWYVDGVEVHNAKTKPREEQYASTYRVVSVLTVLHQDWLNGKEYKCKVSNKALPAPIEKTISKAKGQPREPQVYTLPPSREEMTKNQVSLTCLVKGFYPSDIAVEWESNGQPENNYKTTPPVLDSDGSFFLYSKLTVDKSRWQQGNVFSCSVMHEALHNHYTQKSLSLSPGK
light: B6 light with D30H, N32T, S51D, T52A, S96T, S97N
notes: as for B6

- binding result: binds
B8: Antibody Ab3 (antibody, human IgG1, kappa, N297A)
heavy: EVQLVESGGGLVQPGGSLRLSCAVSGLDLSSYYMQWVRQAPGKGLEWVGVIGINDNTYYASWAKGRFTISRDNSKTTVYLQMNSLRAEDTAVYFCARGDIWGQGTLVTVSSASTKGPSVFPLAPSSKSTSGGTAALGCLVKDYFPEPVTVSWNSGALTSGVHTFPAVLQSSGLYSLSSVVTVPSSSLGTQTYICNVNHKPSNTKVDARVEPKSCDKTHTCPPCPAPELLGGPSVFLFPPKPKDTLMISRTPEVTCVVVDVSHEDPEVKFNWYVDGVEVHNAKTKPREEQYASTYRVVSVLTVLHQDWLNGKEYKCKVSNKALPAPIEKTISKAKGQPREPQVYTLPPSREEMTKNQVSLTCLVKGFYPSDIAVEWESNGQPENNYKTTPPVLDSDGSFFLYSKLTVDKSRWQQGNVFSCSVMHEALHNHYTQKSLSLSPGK
light: B6 light
notes: Humanized, full length; same variable regions as Ab2, heavy constant region differs (KVDARV instead of KVDKRV)

- binding result: binds
B9: Antibody Ab12 (antibody, human IgG1, kappa, N297A, V domains shown)
VH: EVQLVESGGGLVQPGGSLRLSCAVSGIDVTNYYMQWVRQAPGKGLEWVGVIGVNGKRYYASWAKGRFTISRDNSKTTVYLQMNSLRAEDTAVYFCARGDIWGQGTLVTVSS
VL: QVLTQSPSSLSASVGDRVTINCRASQSVYYNNYLAWYQQKPGKVPKQLIYSTSTLASGVPSRFSGSGSGTDFTLTISSLQPEDVATYYCLGSYDCSNGDCFVFGGGTKVEIKR
notes: as for B6

- binding result: binds
B10: Antibody Ab8 (antibody, human IgG1, kappa, N297A, V domains shown)
VH: B9 VH with V29L, T30S, Y32H, I51V, V53I, K56R, R57T
VL: B9 VL with R23Q, Y30N, N31Y, N97T
notes: as for B6

- binding result: binds
B11: Antibody Ab10 (antibody, human IgG1, kappa, N297A)
heavy: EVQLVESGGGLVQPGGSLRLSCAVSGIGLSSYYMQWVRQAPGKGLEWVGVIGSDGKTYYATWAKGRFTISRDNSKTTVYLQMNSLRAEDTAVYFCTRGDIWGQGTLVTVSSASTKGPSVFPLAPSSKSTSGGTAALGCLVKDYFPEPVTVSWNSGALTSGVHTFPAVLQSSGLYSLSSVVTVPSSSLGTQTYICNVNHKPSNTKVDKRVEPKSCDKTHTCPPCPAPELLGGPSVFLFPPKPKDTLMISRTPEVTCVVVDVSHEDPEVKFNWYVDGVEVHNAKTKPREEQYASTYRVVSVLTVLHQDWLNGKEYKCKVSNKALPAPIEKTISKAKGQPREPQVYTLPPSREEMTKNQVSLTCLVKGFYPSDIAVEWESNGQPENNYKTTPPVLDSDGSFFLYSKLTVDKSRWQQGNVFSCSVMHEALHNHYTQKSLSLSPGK
light: B6 light with S27N, D30N, S97R
notes: as for B6

- binding result: binds
B12: Antibody Ab14 (antibody, human IgG1, kappa, N297A)
heavy: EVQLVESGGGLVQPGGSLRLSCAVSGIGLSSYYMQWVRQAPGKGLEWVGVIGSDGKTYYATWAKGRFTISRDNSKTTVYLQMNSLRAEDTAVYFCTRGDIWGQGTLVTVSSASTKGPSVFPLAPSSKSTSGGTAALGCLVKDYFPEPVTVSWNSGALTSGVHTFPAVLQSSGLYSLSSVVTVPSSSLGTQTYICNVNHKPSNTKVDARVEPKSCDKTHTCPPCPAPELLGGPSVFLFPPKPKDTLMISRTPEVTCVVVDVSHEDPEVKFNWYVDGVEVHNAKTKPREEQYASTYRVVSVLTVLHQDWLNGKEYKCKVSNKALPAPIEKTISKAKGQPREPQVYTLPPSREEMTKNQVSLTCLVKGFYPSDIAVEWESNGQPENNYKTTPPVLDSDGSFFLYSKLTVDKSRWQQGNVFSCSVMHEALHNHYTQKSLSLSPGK
light: B6 light with S27N, D30N, S97R
notes: Humanized, full length; same variable regions as Ab10, heavy constant region differs (KVDARV instead of KVDKRV)

- binding result: binds
B13: Antibody Ab6 (antibody, human IgG1, kappa, N297A)
heavy: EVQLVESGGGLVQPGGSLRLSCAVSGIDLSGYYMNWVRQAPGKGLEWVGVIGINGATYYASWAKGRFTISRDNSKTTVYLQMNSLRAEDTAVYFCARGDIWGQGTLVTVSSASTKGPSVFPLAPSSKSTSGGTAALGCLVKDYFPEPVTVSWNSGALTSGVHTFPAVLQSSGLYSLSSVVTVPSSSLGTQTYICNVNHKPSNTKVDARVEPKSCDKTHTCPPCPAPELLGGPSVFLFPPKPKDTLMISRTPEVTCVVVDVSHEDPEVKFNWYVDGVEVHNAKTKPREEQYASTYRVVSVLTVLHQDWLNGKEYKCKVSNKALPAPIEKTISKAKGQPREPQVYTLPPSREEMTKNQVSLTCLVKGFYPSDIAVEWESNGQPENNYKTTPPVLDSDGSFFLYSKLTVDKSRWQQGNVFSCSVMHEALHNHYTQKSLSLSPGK
light: B6 light with D30H, N32T, S51D, T52A, S96T, S97N
notes: Humanized, full length; same variable regions as Ab5, heavy constant region differs (KVDARV instead of KVDKRV)

From US20120294797A1 (ALDERBIO, published 2012)
